Results taken from US20240010721A1.
“And” between values parts separate entries of the source, which are not always exact repeats. Equal entries are not always repeated.

Tests used:
[1] = target: human ROR1 (hROR1) on cells (human) (UniProt Q01973); assay: cell-based or functional assay
[2] = target: human ROR1 (hROR1) on cells (human) (UniProt Q01973); assay: FACS, A549 cells; isotype control
[3] = target: human ROR1 (hROR1) on cells (human) (UniProt Q01973); assay: FACS, HEK293T-hROR1 cells; isotype control
[4] = target: cynomolgus ROR1 (cynoROR1) on CHO-K1 cells (cynomolgus); assay: FACS, CHO-K1-cynoROR1 cells; isotype control
hROR2ECD-his (human) = hROR2ECD-his (human) (UniProt Q01974); assay: ELISA, plate coated with hROR2 ECD-his; isotype control
hROR2ECD-his (human), sequence (Q01974 34-403): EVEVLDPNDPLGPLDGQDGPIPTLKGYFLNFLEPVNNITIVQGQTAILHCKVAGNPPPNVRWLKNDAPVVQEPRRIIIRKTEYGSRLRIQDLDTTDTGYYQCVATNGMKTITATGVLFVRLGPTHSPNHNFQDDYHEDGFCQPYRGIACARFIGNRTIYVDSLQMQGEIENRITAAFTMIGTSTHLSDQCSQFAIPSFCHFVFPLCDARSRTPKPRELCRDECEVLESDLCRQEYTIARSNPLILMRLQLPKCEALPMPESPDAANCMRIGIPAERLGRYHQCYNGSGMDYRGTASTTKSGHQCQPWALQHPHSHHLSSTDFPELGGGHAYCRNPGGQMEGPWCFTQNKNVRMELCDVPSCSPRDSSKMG

[5] = target: Human ROR1-ECD-his (human) (UniProt Q01973); assay: ELISA, plate coated with hROR1 ECD-his; isotype control
Human ROR1-ECD-his (human), sequence (Q01973 30-406): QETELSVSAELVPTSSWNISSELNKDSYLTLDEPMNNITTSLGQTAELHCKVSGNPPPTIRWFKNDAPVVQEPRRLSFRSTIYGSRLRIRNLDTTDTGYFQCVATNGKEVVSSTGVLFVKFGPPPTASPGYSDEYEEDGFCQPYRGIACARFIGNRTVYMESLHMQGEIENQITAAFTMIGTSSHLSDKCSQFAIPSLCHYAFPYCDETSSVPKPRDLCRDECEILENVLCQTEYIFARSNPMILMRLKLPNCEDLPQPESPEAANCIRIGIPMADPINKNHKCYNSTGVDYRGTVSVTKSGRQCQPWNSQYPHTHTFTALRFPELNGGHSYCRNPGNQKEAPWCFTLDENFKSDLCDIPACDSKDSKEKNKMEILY

human ROR1 (hROR1) on cells (human), sequence (Q01973 30-937): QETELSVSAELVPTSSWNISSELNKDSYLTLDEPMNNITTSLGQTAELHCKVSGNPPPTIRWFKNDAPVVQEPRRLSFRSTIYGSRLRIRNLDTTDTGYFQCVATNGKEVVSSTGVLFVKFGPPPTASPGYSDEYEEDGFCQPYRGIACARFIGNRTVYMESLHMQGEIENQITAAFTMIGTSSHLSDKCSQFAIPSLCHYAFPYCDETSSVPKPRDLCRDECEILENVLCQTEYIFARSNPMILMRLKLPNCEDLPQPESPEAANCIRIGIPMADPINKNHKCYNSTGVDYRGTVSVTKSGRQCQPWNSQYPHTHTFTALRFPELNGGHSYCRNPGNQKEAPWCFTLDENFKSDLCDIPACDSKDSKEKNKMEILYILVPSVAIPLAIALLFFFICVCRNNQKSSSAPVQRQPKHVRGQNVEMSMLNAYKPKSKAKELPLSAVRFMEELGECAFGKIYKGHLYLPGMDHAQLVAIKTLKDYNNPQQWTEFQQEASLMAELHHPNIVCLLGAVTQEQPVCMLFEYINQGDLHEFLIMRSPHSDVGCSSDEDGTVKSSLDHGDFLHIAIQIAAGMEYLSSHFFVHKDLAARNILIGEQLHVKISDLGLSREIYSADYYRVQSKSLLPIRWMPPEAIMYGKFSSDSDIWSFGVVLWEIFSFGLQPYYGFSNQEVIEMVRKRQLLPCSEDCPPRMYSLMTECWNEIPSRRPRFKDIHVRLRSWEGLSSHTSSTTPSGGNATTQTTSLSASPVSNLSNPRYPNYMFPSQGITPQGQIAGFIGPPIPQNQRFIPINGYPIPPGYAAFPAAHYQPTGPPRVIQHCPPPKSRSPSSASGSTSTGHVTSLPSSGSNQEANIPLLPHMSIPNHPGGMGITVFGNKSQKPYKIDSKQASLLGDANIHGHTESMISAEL

ADCP, percentage of double-stained cells, 0.1 nM (control) [1]: 6.79% and 5.59%
ADCP, percentage of double-stained cells, 10 nM (control) [1]: 6.53% and 7.46%
MAX(MFI) [2]: 119 MFI
MAX(MFI) [3]: 226 MFI
MAX(MFI) [4]: 140 MFI
ELISA signal (called MFI) (hROR2ECD-his (human)): 0.041
ELISA signal (called MFI) [5]: 0.036
Substance: human Iso IgG1 (CrownBio, Cat#: C0001-4) (antibody)
ADCC Cytotoxicity (%), Donor 1, 1 nM (negative control) [1]: 9.89%
ADCC Cytotoxicity (%), Donor 1, 10 nM (negative control) [1]: 10.4%
ADCC Cytotoxicity (%), Donor 2, 1 nM (negative control) [1]: 10.8%
ADCC Cytotoxicity (%), Donor 2, 10 nM (negative control) [1]: 10.5%
